The values that follow come from US20160009788A1 (UNITED STATES OF AMERICA AS REPRESENTED BY THE SECRETARY …, published 2016).

Residue numbers refer to the chain shown, from its start.

For orientation: Kd means the free concentration of one partner at which half of the binding sites on the other are occupied at equilibrium, for simple one-to-one binding. Broadly, the koff is the rate constant with which the complex falls apart. Broadly, the kon is a measure of how fast the partners come together.

One assay addresses T1, bovine serum albumin (bovine, UniProt P02769 25-607).
T1 construct: Control antigen; also called BSA
The assay is described as follows: ELISA, antigen on the solid phase, soluble Fab. A general note: An ELISA detects its analyte on a solid surface through an enzyme-linked reagent.

Assay [1] concerns the target T2, NV VP1 G365N/V370I double mutant (Norwalk virus, UniProt Q83884 1-530).
T2 construct: whole, on cells; Expressed in transfected Vero cells, methanol-fixed, immunofluorescence
T2 sequence (looked up): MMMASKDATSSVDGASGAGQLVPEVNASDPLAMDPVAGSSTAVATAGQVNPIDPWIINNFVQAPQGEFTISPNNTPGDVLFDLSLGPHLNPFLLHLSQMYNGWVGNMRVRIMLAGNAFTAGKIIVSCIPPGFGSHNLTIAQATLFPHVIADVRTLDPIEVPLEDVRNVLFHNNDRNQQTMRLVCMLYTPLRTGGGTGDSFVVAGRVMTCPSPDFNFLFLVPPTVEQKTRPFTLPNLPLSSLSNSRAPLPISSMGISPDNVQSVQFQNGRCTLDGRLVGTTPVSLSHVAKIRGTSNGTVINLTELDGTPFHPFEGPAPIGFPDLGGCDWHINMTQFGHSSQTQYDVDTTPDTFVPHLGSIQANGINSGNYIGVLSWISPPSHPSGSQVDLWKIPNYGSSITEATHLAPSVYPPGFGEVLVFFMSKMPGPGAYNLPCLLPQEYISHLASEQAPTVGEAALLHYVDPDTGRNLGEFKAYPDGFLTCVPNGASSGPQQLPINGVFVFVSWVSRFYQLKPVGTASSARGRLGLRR
The assay is described as follows: immunofluorescence on transfected Vero cells.

The target of assay [2] is T3, NV VP1 G365N/V370I/I376V triple mutant (Norwalk virus, UniProt Q83884 1-530).
T3 construct: whole, on cells; Expressed in transfected Vero cells, methanol-fixed, immunofluorescence
T3 sequence (looked up): T2 sequence (looked up) with I376V
Briefly: immunofluorescence on transfected Vero cells.

In a further assay the target is T4, NV VP1 G365N mutant (Norwalk virus, UniProt Q83884 1-530).
T4 construct: whole, on cells; Expressed in transfected Vero cells, methanol-fixed, immunofluorescence
T4 sequence (looked up): T2 sequence (looked up) with I370V
Briefly: immunofluorescence on transfected Vero cells.

The target in assay [3] is T5, NV VP1 G365N/I376V double mutant (Norwalk virus, UniProt Q83884 1-530).
T5 construct: whole, on cells; Expressed in transfected Vero cells, methanol-fixed, immunofluorescence
T5 sequence (looked up): T2 sequence (looked up) with I370V, I376V
The assay is described as follows: immunofluorescence on transfected Vero cells.

Assay [4] deals with T6, Norwalk virus (NV, GI.1) recombinant virus-like particles (capsid protein VP1) (Norwalk virus, UniProt Q83884 1-530).
T6 construct: also called NV rVLP; NV-VLP
T6 sequence: T2 sequence (looked up) with N365G, I370V
Briefly: SPR (Biacore 1000), NV rVLP amine-coupled to CM5 chip, Fab as analyte 1-10 nM, Langmuir model.

T1 sequence (P02769 25-607 limits assumed): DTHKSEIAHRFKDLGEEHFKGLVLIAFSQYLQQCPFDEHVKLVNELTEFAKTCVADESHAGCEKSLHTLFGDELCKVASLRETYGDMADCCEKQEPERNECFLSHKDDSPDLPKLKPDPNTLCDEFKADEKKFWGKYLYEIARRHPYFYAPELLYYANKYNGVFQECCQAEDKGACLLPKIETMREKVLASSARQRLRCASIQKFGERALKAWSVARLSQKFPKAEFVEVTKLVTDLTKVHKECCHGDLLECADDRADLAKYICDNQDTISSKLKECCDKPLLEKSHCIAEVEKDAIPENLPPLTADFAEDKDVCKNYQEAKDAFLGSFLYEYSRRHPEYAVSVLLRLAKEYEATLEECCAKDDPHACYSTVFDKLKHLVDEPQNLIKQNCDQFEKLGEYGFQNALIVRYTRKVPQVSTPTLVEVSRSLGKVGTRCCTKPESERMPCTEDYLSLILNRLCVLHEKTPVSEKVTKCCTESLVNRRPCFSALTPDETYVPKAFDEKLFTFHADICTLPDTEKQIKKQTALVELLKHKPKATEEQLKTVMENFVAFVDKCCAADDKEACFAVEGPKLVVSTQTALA

B1: anti-NV Fab G4 (Fab, V domains shown)
VH: EVQLEESGGGLVKPGGSLRLSCAASGFTFSHYVMYWVRQAPEKGLEWVSTISGSGSSTWYPDSVKGRFTVSRDNSKNTLYLQMNSLRGDDTAVYYCARLQGQLVYWGLGTLVTVS
VL: ELQMTQSPSTLSASVGDRVTITCRASQGISSWLAWYQQKPGRAPKLLIYKSSTLESGVPSRFSGSGSGTEFTLTISSLQPDDFATYFCQQYSSNPPLTFGGGTKVEIKR
notes: also called Norwalk Fab G4
As to B1, the binding result with bovine serum albumin was “no binding”; in assay [1], “no binding (tested: 5 ug/mL)”; in assay [2], “no binding (tested: 5 ug/mL)”; in the assay with NV VP1 G365N mutant, “no binding (tested: 5 ug/mL)”; in assay [3], “no binding (tested: 5 ug/mL)”. Further, in assay [4], the Kd was found to be 0.974 nM. For the same molecule, the off-rate (koff) in assay [4] stood at 0.00142 s⁻¹. Besides, in assay [4], the kon was determined as 1.46e+06 M⁻¹ s⁻¹.
